Results as given in PMC3320033 (Virology, 2012).

B1: Sf6 portal protein (gp3) (natural protein, bacteriophage Sf6, UniProt Q716H2 1-708, looked up)
chain: MAETLEKKHERIMLRFDRAYSPQKEVREKCIEATRFARVPGGQWEGATAAGTKLDEQFEKYPKFEINKVATELNRIIAEYRNNRITVKFRPGDREASEELANKLNGLFRADYEETDGGEACDNAFDDAATGGFGCFRLTSMLVNEYDPMDDRQRIAIEPIYDPSRSVWFDPDAKKYDKSDALWAFCMYSLSPEKYEAEYGKKPPTSLDVTSMTSWEYNWFGADVIYIAKYYEVRKESVDVISYRHPITGEIATYDSDQVEDIEDELAIAGFHEVARRSVKRRRVYVSVVDGDGFLEKPRRIPGEHIPLIPVYGKRWFIDDIERVEGHIAKAMDPQRLYNLQVSMLADTAAQDPGQIPIVGMEQIRGLEKHWEARNKKRPAFLPLREVRDKSGNIIAGATPAGYTQPAVMNQALAALLQQTSADIQEVTGGSQAMQQMPSNIAQETVNNLMNRADMASFIYLDNMAKSLKRAGEVWLSMAREVYGSEREVRIVNEDGSDDIAVLSAQVVDRQTGAVVALNDLSVGRYDVTVDVGPSYTARRDATVSVLTNVLSSMLPTDPMRPAIQGIILDNIDGEGLDDFKEYNRNQLLISGIAKPRNEKEQQIVQQAQMAAQSQPNPEMVLAQAQMVAAQAEAQKATNETAQTQIKAFTAQQDAMESQANTVYKLAQARNIDDKAVMEAIRLLKDVAESQQQQFQSPPQSPADLMPS
B2: Sf6 tail plug protein gp7 (natural protein, bacteriophage Sf6, UniProt Q716G8 1-160, looked up)
chain: MATVLTKGEIVLFALRKFAIASNASLTDVEPQSIEDGVNDLEDMMSEWMINPGDIGYAFATGDEQPLPDDESGLPRKYKHAVGYQLLLRMLSDYSLEPTPQVLSNAQRSYDALMTDTLVVPSMRRRGDFPVGQGNKYDVFTSDRYYPGDLPLIDGDIPNA
B3: Sf6 tail needle (gp9) (natural protein, bacteriophage Sf6, UniProt Q716G6 1-282, looked up)
chain: MADSNLNVPVIIQATRLDTSVLPRNIFSQSYLLYVIAQGTDVGNVANKANEAGQGAYDAQVRNDEQDVILADHEQRISAAEATLVNHEERIRQAESTLQDHETRIAQNESDISSLDTRVQSLESQVSDHETRIDALEYATTRKKSEVVYSGVSVTIPTAPTNLVSLLKTLTPSSGTLAPFFDTVNNKMVVFNENKTLFFKLSIVGTWPSGTANRSMQLTFSGSVPDTLVSSRNSATTTDNILLATFFSVDKDGFLATNGSTLTIQSNGASFTATTIKIIAEQ
B4: Sf6 tail plug protein gp8 (natural protein, bacteriophage Sf6, UniProt Q716G7 1-472, looked up)
chain: MPIQQLPLMKGVGKDFRNADYIDYLPVNMLATPKEILNSSGYLRSFPGIAKRSDVNGVSRGVEYNMAQNAVYRVCGGKLYKGESEVGDVAGSGRVSMAHGRTSQAVGVNGQLVEYRYDGTVKTVSNWPTDSGFTQYELGSVRDITRLRGRYAWSKDGTDSWFITDLEDESHPDRYSAQYRAESQPDGIIGIGTWRDFIVCFGSSTIEYFSLTGATTAGAALYVAQPSLMVQKGIAGTYCKTPFADSYAFISNPATGAPSVYIIGSGQVSPIASASIEKILRSYTADELADGVMESLRFDAHELLIIHLPRHVLVYDASSSANGPQWCVLKTGLYDDVYRAIDFIYEGNQITCGDKLESVTGKLQFDISSQYGLQQEHLLFTPLFKADNARCFDLEVESSTGVAQYADRLFLSATTDGINYGREQMIEQNEPFVYDKRVLWKRVGRIRKNVGFKLRVITKSPVTLSGAQIRIE

Biological target: the molecule itself
Test: cryo-EM structure

B1 and B2 are the same in “stoichiometry N” value: 12 for the first, 12 for the second.

First: B3
Second: B4
The “stoichiometry N” value of the first is lower: 3 for the first, 6 for the second.
